Source: US6500934
Blank lines part the entries; values can stand above or below the binder they belong to. Non-standard residues stand in square brackets, D forms with d. No end group written: not given here. Ahx = NCCCCCC(=O)O; βAla = NCCC(=O)O

How the values were obtained:
[1] = target: α-MSH receptor of wild type Xenopus laevis melanophores (Xenopus laevis); assay: cell-based or functional assay
[2] = target: bombesin receptor expressed in transfected Xenopus laevis melanophores (plasmid pJG3.6BR); assay: cell-based or functional assay

IC50 of inhibition of α-MSH (5 nM) mediated pigment dispersion in wild type melanophores [1]: 0.12 µM
Binder: MP[dF]R[dW]FKPVGGG[Ahx]KKKKKKKKKKKKKKKKKKKK[βAla] [α-MSH-ANT monomer (MPdFRdWFKPV-GGGεAhx-K(20)-βAla)]

EC50 (t=30 min) of pigment dispersion in melanophores transfected with the bombesin receptor [2]: 0.0234 µM
EC50 of pigment dispersion, fold lower than bombesin monomer [2]: 5 fold
B1: Bombesin dimer (disulfide-linked homodimer of C-K(20)-εAhx-GGG-…) (peptide)
peptide: CKKKKKKKKKKKKKKKKKKKK[Ahx]GGGQQRLGNQWAVGHLM-NH2
modifications: ends and bridges not checked; also: disulfide-linked homodimer via N-terminal Cys

EC50 (at t=30 min.) of pigment dispersion in wild type melanophores [1]: 0.0725 µM
EC50 of pigment dispersion, fold lower than α-MSH monomer [1]: 5 fold
Binder: SYSMEHFRWGKPVGGG[Ahx]KKKKKKKKKKKKKKKKKKKKC[βAla] (ends and bridges not checked; also: disulfide-linked homodimer via Cys) [α-MSH dimer (disulfide-linked homodimer of …-GGG-εAhx-K(20)-C-βAla)]
